Reference: PMC5908791

Legend:
[1] = biological target: human SOCS1 (residues 53-211) in complex with Elongins B and C (human) (UniProt O15524); test: ITC
[2] = biological target: human JAK1 kinase domain (human) (UniProt P23458)
Sequence of UniProt P23458 (P23458 869-1153): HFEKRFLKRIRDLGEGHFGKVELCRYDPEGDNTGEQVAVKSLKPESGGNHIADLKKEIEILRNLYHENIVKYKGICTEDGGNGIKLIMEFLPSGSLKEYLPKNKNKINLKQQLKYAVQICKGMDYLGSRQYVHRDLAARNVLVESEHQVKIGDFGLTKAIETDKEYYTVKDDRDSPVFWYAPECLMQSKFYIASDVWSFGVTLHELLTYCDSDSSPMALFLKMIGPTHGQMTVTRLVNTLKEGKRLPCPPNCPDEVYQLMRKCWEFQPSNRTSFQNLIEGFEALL

Row | Substance | Kd [1] [µM] | IC50 of inhibition of the JAK1 kinase domain phosphorylating a STAT5b-derived peptide (in vitro kinase assay) [2] [µM]
1 | IL-2Rβ (pY392) | 1.03 | –
2 | IL-2Rβ (pY355) | 0.614 | –
3 | IFNαR2 (pY269) | 2.65 | –
4 | IL-2Rβ (pY338) | 0.964 | –
5 | IL-2Rβ (pY510) | 0.209 | –
6 | human SOCS1 (residues 53-211) in complex with Elongins B and C (from UniProt O15524 53-211; Q15370 1-118; Q15369 17-112) | – | 0.03
